Results on two proteins are retold here after patent publication US20020142355A1 (BAYLOR COLLEGE OF MEDICINE, published 2002).

This series deals with the molecule itself. Put plainly: Western blot of transfected cells, self-association (trimer) of the fiber fusion.

B1: adenovirus type 5 fiber protein with the C-terminal 70 amino acid PSTCD domain (biotinylated) (other)
chain: MKRARPSEDTFNPVYPYDTETGPPTVPFLTPPFVSPNGFQESPPGVLSLRLSEPLVTSNGMLALKMGNGLSLDEAGNLTSQNVTTVSPPLKKTKSNINLEISAPLTVTSEALTVAAAAPLMVAGNTLTMQSQAPLTVHDSKLSIATQGPLTVSEGKLALQTSGPLTTTDSSTLTITASPPLTTATGSLGIDLKEPIYTQNGKLGLKYGAPLHVTDDLNTLTVATGPGVTINNTSLQTKVTGALGFDSQGNMQLNVAGGLRIDSQNRRLILDVSYPFDAQNQLNLRLGQGPLFINSAHNLDINYNKGLYLFTASNNSKKLEVNLSTAKGLMFDATAIAINAGDGLEFGSPNAPNTNPLKTKIGHGLEFDSNKAMVPKLGTGLSFDSTGAITVGNKNNDKLTLWTTPAPSPNCRLNAEKDAKLTLVLTKCGSQILATVSVLAVKGSLAPISGTVQSAHLIIRFDENGVLLNNSFLDPEYWNFRNGDLTEGTAYTNAVGFMPNLSAYPKSHGKTAKSNIVSQVYLNGDKTKPVTLTITLNGTQETGDTTPSAYSMSFSWDWSGHNYINEIFATSSYTFSYIAQEEGEIPAPLAGTVSKILVKEGDTVKAGQTVLVLEAMKMETEINAPTDGKVEKVLVKERDAVQGGQGLIKIG
modifications: biotin on lysine 89 of PSTCD (numbering of FIG. 1, full length PSTCD)
notes: also called fiber/PSTCD fusion protein; fiber of the biotinylated adenovirus
For B1, the binding result is listed as “binds”.

B2: adenovirus type 5 fiber protein joined to full length PSTCD (other)
chain: MKRARPSEDTFNPVYPYDTETGPPTVPFLTPPFVSPNGFQESPPGVLSLRLSEPLVTSNGMLALKMGNGLSLDEAGNLTSQNVTTVSPPLKKTKSNINLEISAPLTVTSEALTVAAAAPLMVAGNTLTMQSQAPLTVHDSKLSIATQGPLTVSEGKLALQTSGPLTTTDSSTLTITASPPLTTATGSLGIDLKEPIYTQNGKLGLKYGAPLHVTDDLNTLTVATGPGVTINNTSLQTKVTGALGFDSQGNMQLNVAGGLRIDSQNRRLILDVSYPFDAQNQLNLRLGQGPLFINSAHNLDINYNKGLYLFTASNNSKKLEVNLSTAKGLMFDATAIAINAGDGLEFGSPNAPNTNPLKTKIGHGLEFDSNKAMVPKLGTGLSFDSTGAITVGNKNNDKLTLWTTPAPSPNCRLNAEKDAKLTLVLTKCGSQILATVSVLAVKGSLAPISGTVQSAHLIIRFDENGVLLNNSFLDPEYWNFRNGDLTEGTAYTNAVGFMPNLSAYPKSHGKTAKSNIVSQVYLNGDKTKPVTLTITLNGTQETGDTTPSAYSMSFSWDWSGHNYINEIFATSSYTFSYIAQEKLKVTVNGTAYDVDVDVDKSHENPMGTILFGGGTGGAPAPAAGGAGAGKAGEGEIPAPLAGTVSKILVKEGDTVKAGQTVLVLEAMKMETEINAPTDGKVEKVLVKERDAVQGGQGLIKIG
modifications: biotin on lysine 89 of PSTCD (numbering of FIG. 1)
notes: also called fiber-PSTCD, full length form
Consider B2, for which the binding result is “no binding”.
